Reference: article PMC10715180

Columns and labels:
Experiment in all cases: EMSA
Conditions in all cases: […] (binding temperature not stated)
[1] = biological target: PhoP (PhoPmas) WT, unphosphorylated (Mycobacterium abscessus subsp. massiliense CIP108297 (Mmas; subspecies name implied?)) (UniProt B1MHU9)
[2] = biological target: PhoP D71N D71N (Mycobacterium abscessus subsp. massiliense CIP108297 (Mmas; subspecies name implied?)) (UniProt B1MHU9)
[3] = biological target: PhoP K224A K224A (Mycobacterium abscessus subsp. massiliense CIP108297 (Mmas; subspecies name implied?)) (UniProt B1MHU9)

AGGTAATCTTCCCCCCAAAATTTACGATGCGCTGGATCTTCACTGTGAGCTTCCTGTGAGTTACTCACAGCAGATTGTCAGCCAACCGCGCCAGGTCGCCCTACAGTTGAGCC (double strand) [phoP promoter probe WT]
binding [1]: binds | binding [2]: binds more weakly | binding [3]: no binding
